Data published in IntAct's records for PubMed 25502805.

B1: Mothers against decapentaplegic homolog 4 (Homo sapiens), Q13485 (parent)
chain: MDNMSITNTPTSNDACLSIVHSLMCHRQGGESETFAKRAIESLVKKLKEKKDELDSLITAITTNGAHPSKCVTIQRTLDGRLQVAGRKGFPHVIYARLWRWPDLHKNELKHVKYCQYAFDLKCDSVCVNPYHYERVVSPGIDLSGLTLQSNAPSSMMVKDEYVHDFEGQPSLSTEGHSIQTIQHPPSNRASTETYSTPALLAPSESNATSTANFPNIPVASTSQPASILGGSHSEGLLQIASGPQPGQQQNGFTGQPATYHHNSTTTWTGSRTAPYTPNLPHHQNGHLQHHPPMPPHPGHYWPVHNELAFQPPISNHPAPEYWCSIAYFEMDVQVGETFKVPSSCPIVTVDGYVDPSGGDRFCLGQLSNVHRTEAIERARLHIGKGVQLECKGEGDVWVRCLSDHAVFVQSYYLDREAGRAPGDAVHKIYPSAYIKVFDLRQCHRQMQQQAATAQAAAAAQAAAVAGNIPGPGSVGGIAPAISLSAAAGIGVDDLRRLCILRMSFVKGWGPDYPRQSIKETPCWIEIHLHRALQLLDEVLHTMPIADPQPLD
B2: Cyclin-dependent kinase 4 (Homo sapiens), P11802 (parent)
chain: MATSRYEPVAEIGVGAYGTVYKARDPHSGHFVALKSVRVPNGGGGGGGLPISTVREVALLRRLEAFEHPNVVRLMDVCATSRTDREIKVTLVFEHVDQDLRTYLDKAPPPGLPAETIKDLMRQFLRGLDFLHANCIVHRDLKPENILVTSGGTVKLADFGLARIYSYQMALTPVVVTLWYRAPEVLLQSTYATPVDMWSVGCIFAEMFRRKPLFCGNSEADQLGKIFDLIGLPPEDDWPRDVSLPRGAFPPRGPRPVQSVVPEMEESGAQLLLEMLTFNPHKRISAFRALQHSYLHKDEGNPE

Variants of: B1
Settings: with smad3_human SMAD3, P84022
Chain of smad3_human SMAD3, P84022 (P84022 whole entry, looked up): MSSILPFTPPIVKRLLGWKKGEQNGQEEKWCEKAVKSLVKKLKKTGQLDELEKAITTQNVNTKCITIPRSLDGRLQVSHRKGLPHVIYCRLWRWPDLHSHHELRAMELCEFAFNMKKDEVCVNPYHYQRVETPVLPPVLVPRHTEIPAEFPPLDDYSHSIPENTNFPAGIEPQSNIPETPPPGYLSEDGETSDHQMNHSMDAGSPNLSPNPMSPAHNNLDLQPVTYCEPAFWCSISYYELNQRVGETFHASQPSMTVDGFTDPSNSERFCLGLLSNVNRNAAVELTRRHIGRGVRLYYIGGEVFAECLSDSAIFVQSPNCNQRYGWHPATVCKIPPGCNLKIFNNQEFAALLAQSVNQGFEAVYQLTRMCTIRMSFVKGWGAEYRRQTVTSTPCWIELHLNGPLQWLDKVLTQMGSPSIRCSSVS

| Variant | effect of a mutation on the interaction |
| --- | --- |
| V350D | disrupting interaction strength |
| C324R | disrupting interaction strength |
| L533R | disrupting interaction strength |
| G352R | disrupting interaction strength |
| E330K | disrupting interaction strength |

Variants of: B1
Settings: with smad3_human SMAD3, P84022
Remark: another data set of the same source

| Variant | effect of a mutation on the interaction |
| --- | --- |
| N13S | with no effect |

Variants of: B1
Settings: with smad9_human SMAD9, O15198
Chain of smad9_human SMAD9, O15198 (O15198 whole entry): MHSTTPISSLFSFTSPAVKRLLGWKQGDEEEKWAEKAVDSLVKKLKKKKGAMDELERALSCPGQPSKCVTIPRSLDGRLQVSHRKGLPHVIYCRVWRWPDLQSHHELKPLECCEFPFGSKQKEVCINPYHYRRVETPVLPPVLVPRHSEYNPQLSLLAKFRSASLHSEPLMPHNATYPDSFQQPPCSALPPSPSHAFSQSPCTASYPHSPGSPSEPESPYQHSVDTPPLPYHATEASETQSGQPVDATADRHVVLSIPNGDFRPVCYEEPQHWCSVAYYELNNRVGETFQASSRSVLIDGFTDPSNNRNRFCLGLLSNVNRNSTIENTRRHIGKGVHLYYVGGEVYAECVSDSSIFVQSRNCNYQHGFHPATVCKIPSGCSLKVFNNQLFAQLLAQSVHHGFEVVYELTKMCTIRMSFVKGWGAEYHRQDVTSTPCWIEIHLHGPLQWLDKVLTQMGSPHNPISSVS

| Variant | effect of a mutation on the interaction |
| --- | --- |
| N13S | with no effect |

Variants of: B2
Settings: with ccnd1_human CCND1, P24385
Chain of ccnd1_human CCND1, P24385 (P24385 whole entry): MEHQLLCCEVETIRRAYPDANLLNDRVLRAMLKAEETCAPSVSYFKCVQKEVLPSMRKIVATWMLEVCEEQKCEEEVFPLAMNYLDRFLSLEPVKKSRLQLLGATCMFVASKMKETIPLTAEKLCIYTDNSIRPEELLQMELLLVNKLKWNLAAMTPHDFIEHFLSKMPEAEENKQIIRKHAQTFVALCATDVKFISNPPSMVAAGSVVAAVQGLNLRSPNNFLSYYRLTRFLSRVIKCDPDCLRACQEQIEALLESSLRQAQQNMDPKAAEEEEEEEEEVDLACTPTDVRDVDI

| Variant | effect of a mutation on the interaction |
| --- | --- |
| MATSRYEPVAEIGVGAYGTVYKARDPHSGHFVALKSVRVPSGGGGGGGLPISTVREVALLRRLEAFEHPNVVRLMDVCATSRTDREIKVTLVFEHVDQDLRTYLDKAPPPGLPAETIKDLMRQFLRGLDFLHANCIVHRDLKPENILVTSGGTVKLADFGLARIYSYQMALTPVVVTLWYRAPEVLLQSTYATPVDMWSVGCIFAEMFRRKPLFCGNSEADQLGKIFDLIGLPPEDDWPRDVSLPRGAFPPRGPRPVQSVVPEMEESGAQLLLEMLTFNPHKRISAFRALQHSYLHKDEGNPE [N41S] | with no effect |
| MATSRYEPVAEIGVGAYGTVYKAHDPHSGHFVALKSVRVPNGGGGGGGLPISTVREVALLRRLEAFEHPNVVRLMDVCATSRTDREIKVTLVFEHVDQDLRTYLDKAPPPGLPAETIKDLMRQFLRGLDFLHANCIVHRDLKPENILVTSGGTVKLADFGLARIYSYQMALTPVVVTLWYRAPEVLLQSTYATPVDMWSVGCIFAEMFRRKPLFCGNSEADQLGKIFDLIGLPPEDDWPRDVSLPRGAFPPRGPRPVQSVVPEMEESGAQLLLEMLTFNPHKRISAFRALQHSYLHKDEGNPE [R24H] | with no effect |
